# Measured values from paper PMC4967042.
# Legend:
# Test in all cases: MST
# [1] = biological target: RECQ1-C453A (human, UniProt P46063 1-649, C453A)
# [2] = biological target: RECQ1-C478A (human, UniProt P46063 1-649, C478A)
# [3] = biological target: RECQ1-C475A (human, UniProt P46063 1-649, C475A)
# Sequence of RECQ1-C475A (P46063 whole entry C475A): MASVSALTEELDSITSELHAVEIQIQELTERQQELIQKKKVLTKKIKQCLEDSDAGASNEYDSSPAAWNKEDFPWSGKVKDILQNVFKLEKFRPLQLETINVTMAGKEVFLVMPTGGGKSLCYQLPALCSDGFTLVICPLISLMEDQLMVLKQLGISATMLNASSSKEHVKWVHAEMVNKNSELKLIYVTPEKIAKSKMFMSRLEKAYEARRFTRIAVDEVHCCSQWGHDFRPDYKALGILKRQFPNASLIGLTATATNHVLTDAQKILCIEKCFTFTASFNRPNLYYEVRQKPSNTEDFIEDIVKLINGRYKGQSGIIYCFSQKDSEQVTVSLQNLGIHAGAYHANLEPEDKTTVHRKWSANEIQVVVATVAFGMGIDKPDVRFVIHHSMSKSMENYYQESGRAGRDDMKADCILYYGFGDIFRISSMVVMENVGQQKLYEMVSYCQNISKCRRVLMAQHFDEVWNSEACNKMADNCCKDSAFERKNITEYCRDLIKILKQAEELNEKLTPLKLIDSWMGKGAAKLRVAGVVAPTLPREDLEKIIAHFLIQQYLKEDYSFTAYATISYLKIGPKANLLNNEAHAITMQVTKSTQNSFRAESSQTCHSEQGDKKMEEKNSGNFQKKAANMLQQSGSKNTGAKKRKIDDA
# Sequence of RECQ1-C478A (P46063 whole entry C478A): as the sequence (P46063 whole entry C475A) above, with A475C, C478A counted along it
# Sequence of RECQ1-C453A (P46063 whole entry C453A): as the sequence (P46063 whole entry C475A) above, with C453A, A475C counted along it
binder,measurement,setting,value
forked duplex T44/FLAP26 (dsDNA) DNA 1: GCACTGGCCGTCGTTTTACGGTCGTGACTGGGAAAACCCTGGCG DNA 2: TTTTTTTTTTTTTTTTTTTTTTCCAAGTAAAACGACGGCCAGTGC,Kd,[1],276 nM
same,Kd,[2],602 nM
same,Kd,[3],473 nM
